Three molecules from patent publication US20220105157A1, “Compositions and Methods for Promoting Angiogenesis in the Eye” (The Regents of the University of California, priority 2019, published 2022) can be followed below.

The test system of assay [1] is retinal vasculature of mouse eyes. The assay can be described thus: Intravitreal injection of recombinant proteins in mouse eyes, retinal vessel density. Format: in vivo. The settings on record: mice, intravitreal. As for the experimental part:
Male C57BL/6J mice (6-8 week and P5) were anesthetized with ketamine/Xylazine cocktail. The indicated amounts of recombinant LIF (Sigma, CAT #SRP9001) in 1 μl of PBS and PBS vehicle control were injected intravitreally with a 33-gauge Hamilton syringe. Seven (for adult mice) or 3 (for neonatal mice) days after injection, animals were euthanized, eyes were then enucleated and fixed in 4% paraformaldehyde (PFA) for 15 min. Choroid-sclera complexes and retinas were separated and anti-CD31 immunofluorescence (IF) or lectin labeling was performed to evidence the vasculature by whole mount staining of both retina and choroidal tissues or flat-mounts of retina. For CD31 IF, rat anti-mouse antibody (BD Biosciences, CAT #550274) was diluted 1:100 and incubated overnight at 4° C. After 4-hour incubation with the Alexa Fluor-488-conjugated anti-rat antibody (Life Technologies, CAT #A11006), whole mounts were imaged via the 488 nm channel using Keyence Microscope BZ-X710 (Keyence Corporation, Osaka, Japan) or A1R Confocal STORM super-resolution system (Nikon). For lectin staining, Dylight-488-labeled lectin (Vector Laboratories, CAT #DL-1174) was diluted at 1:200 and images were obtained using A1R Confocal STORM super-resolution system (Nikon). For Quantification of vascular density in choroids and retina was carried out by Image J. Student's t test was used for statistical analysis. […]
Optical coherence tomography angiography (OCTA) imaging of the retina of adult mice was performed 7 days after LIF injection, using a 1300 nm optical coherence tomography (OCT) system developed by Dr. R. K. Wang's group at University of Washington Seattle, in agreement with previously described methodology (66). […] To quantify the retinal vascular density, retinal and choroidal layers in 3D structure OCT scans were separated by the hyper-reflecting retinal pigment epithelium (RPE). […] The vessel density was then determined by calculating the percentages of vessel-covered area in total area of view using the ImageJ software.

Assay [2] has as its system choroid capillaries of NaIO3-treated mice. The experiment in a line: Sodium iodate (NaIO3) model, choroid capillary recovery. The settings on record: NaIO3 20 mg/kg i.v.; intravitreal LIF 50 ng, CT-1 different doses, OSM 10 ng; OCT-A. It is filed as in vivo, mouse. Here is the method:
Eight-week-old C57BL/6J mice were anesthetized with ketamine/xylazine cocktail. Sterilized NaIO3 was administered as a single intravenous injection (20 mg/kg body weight) (28) (29). Control mice were injected with PBS. PBS, LIF (50 ng), CT-1 (different doses) or OSM (10 ng) was injected intravitreally in five-mice groups. Five, seven and nine days after injection, choroid capillaries were monitored by OCT-A system. 9 days after injection, mice were killed and eyes were harvested for H&E and immunofluorescent staining. Avascular area in choroid capillaries was analyzed using ImageJ.

The test system of assay [3] is bovine choroidal endothelial (BCE) cells. The experiment in a line: BCE endothelial cell proliferation assay (alamar blue). It is filed as cell-based. On the set-up: key to BCE cell growth normalized to the vehicle control group: ns, not statistically significant. The settings on record: for BCE cell growth normalized to the vehicle control group: day 6, n = 3. As for the experimental part:
The bovine endothelial proliferation assays were performed essentially as previously described (63, 64). BCE (1×10^3 cells/well) or BRE (5×10^2 cells/well) cells were seeded in 96-well plates in the culture medium (DMEM-low glucose supplemented with 10% BCS, 2 mM glutamine and antibiotics) plus testing materials with a total volume of 200 μl per well. BAE cells were plated in 96-well plates at a density of 2×10^3 cells in the culture medium (DMEM-low glucose supplemented with 1% BCS and antibiotics) plus testing material with a total volume of 200 μl per well. HRME cells were seeded at a density of 1×10^3 cells/well in gelatin-coated 96-well plates in assay medium (DMEM-low glucose supplemented with 20% FBS and antibiotics) plus testing materials to make a total volume 200 μl per well. For assays involving antibodies or small-molecule inhibitors, inhibitors or vehicle controls were first added and then test materials were added one hour later. After 6 days (unless otherwise specified), cells were incubated with alamar blue for 4 h. Fluorescence was measured at 530 nm excitation wavelength and 590 nm emission wavelength. Each experiment was carried out in duplicate/triplicate and repeated at least three times.
(Resazurin is reduced to fluorescent resorufin, in cell work by metabolically active cells.)

B1: OSM: oncostatin M, IL-6 family member (protein, UniProt P13725 26-221, looked up)
Oncostatin-M: AAIGSCSKEYRVLLGQLQKQTDLMQDTSRLLDPYIRIQGLDVPKLREHCRERPGAFPSEETLRGLGRRGFLQTLNATLGCVLHRLADLEQRLPKAQDLERSGLNIEDLEKLQMARPNILGLRNNIYCMAQLLDNSDTAEPTKAGRGASQPPTPTPASDAFQRKLEGCRFLHGYHRFMHSVGRVFSKWGESPNRSRR
Consider B1, for which, in assay [1], the “vascular density in the retina” value is on record as “vascular density decreased”. The “avascular areas in choroid compared to PBS group” value in assay [2] is given as “larger than in the PBS group”.

B2: PRDX-1: recombinant human Peroxiredoxin 1 (protein, UniProt Q06830 2-199, looked up)
Peroxiredoxin-1: SSGNAKIGHPAPNFKATAVMPDGQFKDISLSDYKGKYVVFFFYPLDFTFVCPTEIIAFSDRAEEFKKLNCQVIGASVDSHFCHLAWVNTPKKQGGLGPMNIPLVSDPKRTIAQDYGVLKADEGISFRGLFIIDDKGILRQITVNDLPVGRSVDETLRLVQAFQFTDKHGEVCPAGWKPGSDTIKPDVQKSKEYFSKQK
Take B2: in assay [3], the “stimulation of BCE cell growth (mitogenic activity)” value is “had no effect”. Also, the “BCE cell growth normalized to the vehicle control group” value in assay [3] (3 ng/ml), in assay [3] (10 ng/ml), in assay [3] (30 ng/ml), in assay [3] (100 ng/ml), in assay [3] (300 ng/ml) and in assay [3] (1000 ng/ml) was “ns” in each case.

B3: CT-1: cardiotrophin-1, IL-6 family member (protein, UniProt Q16619 1-201, looked up)
Cardiotrophin-1: MSRREGSLEDPQTDSSVSLLPHLEAKIRQTHSLAHLLTKYAEQLLQEYVQLQGDPFGLPSFSPPRLPVAGLSAPAPSHAGLPVHERLRLDAAALAALPPLLDAVCRRQAELNPRAPRLLRRLEDAARQARALGAAVEALLAALGAANRGPRAEPPAATASAASATGVFPAKVLGLRVCGLYREWLSRTEGDLGQLLPGGSA
In the case of B3, the “increase in retinal density” value is given as “approximately 30%” in assay [1] (20 ng) and around 50% in assay [1] (100 ng). Besides, the “avascular areas in choroid compared to PBS group” value in assay [2] was “reduced avascular areas”.
